Here are results for 116 sequences from the supplement of paper PMC10724198.

± gives the standard deviation of the averaged measurements.
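Further: PSI is a weighted mean of sequencing reads over stability bins, variants kept only with over 10 reads, mCherry proximal and sfGFP distal, peptide attached via GGGS linker.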

The test system of the series is Saccharomyces cerevisiae. As to the kind of experiment: protein stability index of tFT-peptide fusion (C-terminal peptide) (PSI (0-1 scale)); higher = more stable (slower turnover). Particulars: genetic background: wild type; temperature: 30 C.
Consider LHKAATADPPRV, for which the protein stability index stood at 0.711 ± 0.02. With LHKSINPSPHPP the figure was 0.6864 ± 0.0066; with LHLGRLVHGGVD, 0.673 ± 0.017; with LHLPPPLPSTLP, 0.671 ± 0.012. With LHPPLALPRPPP the figure was 0.711 ± 0.05. Under LHPPPPPPALTP stands 0.729 ± 0.068. Sequence LHRTKHLRKGHK came in with a protein stability index of 0.6905 ± 0.0033. Under LIGTAPGITGFN stands 0.661 ± 0.011. Under LISADTFVHFND stands 0.725 ± 0.02. Under LISRLVSSLIHT stands 0.621 ± 0.015; under LITRLLCSPCSQ, 0.605 ± 0.0059; under LKDLGKQVVTVR, 0.587 ± 0.0062. LKFLFTYLGFLS registered a protein stability index of 0.532 ± 0.03. Under LKGVVRFISGQD stands 0.71735 ± 0.00052; under LKKDVYANNLTD, 0.673 ± 0.004; under LKKEFSGKEIQD, 0.743 ± 0.049. Under LKKSYSTPFTHY stands 0.69 ± 0.048; under LKLTFPFWNTGT, 0.728 ± 0.034; under LKNGDINYARFG, 0.679 ± 0.083. LKQTNQHKVNTD yielded a protein stability index of 0.643 ± 0.053. The sequence LKRDLGGTSTRG returned a protein stability index of 0.6615 ± 0.0057. With LKRGKIVDRGWY the figure was 0.641 ± 0.082.

LKRMQKYIDMSS came in with a protein stability index of 0.714 ± 0.11.

With LKSYHKLKTCSS, the protein stability index is 0.678 ± 0.061. Under LKTLKHRLRHLE stands 0.732 ± 0.034; under LLAFRTVSVGVL, 0.5212 ± 0.0014.

As to LLCLRGRVTLCP, the protein stability index worked out at 0.537 ± 0.031. LLDVFFPRFFCH had a protein stability index of 0.611 ± 0.078. With LLFDQTRIGMDV the figure was 0.675 ± 0.038.

For the sequence LLFISPPPRCLL, the protein stability index turned out to be 0.75 ± 0.036. Sequence LLFPFLSFLLPL yielded a protein stability index of 0.66 ± 0.037. Under LLFRCGARSAGG stands 0.676 ± 0.022; under LLGLVGGVVGLA, 0.624 ± 0.01; under LLGPSGRAIKIQ, 0.6659 ± 0.0013. With LLHCPSRGFLFS the figure was 0.851 ± 0.17; with LLHQSRSQVSFY, 0.717 ± 0.093; with LLILGTPKQDSR, 0.67 ± 0.036. Regarding LLKGPDLLGRAS, the protein stability index worked out at 0.721 ± 0.051. LLLALPSRPPPS came in with a protein stability index of 0.666 ± 0.13. With LLLPNPTPPPPP the figure was 0.625 ± 0.0012; with LLLPPPVFPPSL, 0.683 ± 0.01; with LLLWCRGGLLGS, 0.753 ± 0.024. As for LLPAPLPTALPL, the protein stability index is 0.65 ± 0.07. With LLPAPPRLLPSS the figure was 0.68 ± 0.024; with LLPHCRPGSTAA, 0.692 ± 0.019; with LLPPGSSSRVAL, 0.733 ± 0.022. In turn, LLPPPLPPLHSS had a protein stability index of 0.6828 ± 0.0054. In the case of LLPPPLPQAPPT, the protein stability index turned out to be 0.708 ± 0.03. Under LLPPPPTPPLNL stands 0.688 ± 0.033.

In the case of LLPPPVFPPLSP, the protein stability index is 0.753 ± 0.013. With LLPPQPYTPLHL the figure was 0.679 ± 0.13. In turn, LLPPTLHPPHLP had a protein stability index of 0.751 ± 0.0096. LLPRQSRYNAHF had a protein stability index of 0.669 ± 0.075. With LLPRSSPTPLAH, the protein stability index came out at 0.735 ± 0.066. With LLPSAAKLTLLP, the protein stability index turned out to be 0.77 ± 0.07. For the sequence LLPSAAPPPQFL, the protein stability index worked out at 0.686 ± 0.035.

The sequence LLPSPLPPHPPP registered a protein stability index of 0.637 ± 0.053. LLPSRAPTSIPL returned a protein stability index of 0.686 ± 0.037. With LLQQILKDYAEI the figure was 0.686 ± 0.033; with LLRDRRQETILK, 0.623 ± 0.092.

In turn, LLRPPSAPSTLL returned a protein stability index of 0.706 ± 0.084. Under LLRSEETTIEPF stands 0.7531 ± 0.004; under LLRTHTTPKLGG, 0.661 ± 0.051. In turn, LLSASPASLSFL came in with a protein stability index of 0.706 ± 0.054. With LLSFFLSPPSIL the figure was 0.734 ± 0.02; with LLSHLSPCTRIG, 0.606 ± 0.051. On to LLSHPDLPPIPP, for which the protein stability index turned out to be 0.503 ± 0.086. In turn, LLSLSGVLLVPP returned a protein stability index of 0.656 ± 0.013. Consider LLSLVYSPLSPL, for which the protein stability index amounted to 0.664 ± 0.035. With LLSRLVVRGLVS the figure was 0.629 ± 0.087; with LLSRLWPASSSG, 0.672 ± 0.08. With LLSSFIFSILFF, the protein stability index worked out at 0.496 ± 0.0085. LLTGVPRFSLDS showed a protein stability index of 0.683 ± 0.014. Under LLTSCLLSCCFR stands 0.671 ± 0.027; under LLYPALQHVSSV, 0.721 ± 0.12. LMLFCLGCDMSV: the protein stability index amounted to 0.576 ± 0.027. Under LMYGCAQHRNRS stands 0.61 ± 0.033. With LPAPGRPSPCRL the figure was 0.809 ± 0.041; with LPAPPPHPLSPV, 0.7161 ± 0.0063. In the case of LPAPRFLVPAFL, the protein stability index is 0.637 ± 0.025. Sequence LPAPSPPSFPAP returned a protein stability index of 0.743 ± 0.099. Under LPASPGSVPFLF stands 0.716 ± 0.084. Under LPCPRPVPPSPA stands 0.626 ± 0.018.

Turning to LPDPPEPHLRLP, the protein stability index came to 0.694 ± 0.025. On to LPDPPLSPPPVR, for which the protein stability index amounted to 0.675 ± 0.016. The sequence LPFLPPPPPLRP had a protein stability index of 0.694 ± 0.11. With LPFRPWLPRSLI the figure was 0.68 ± 0.059; with LPGPDLLSRMAS, 0.659 ± 0.019.

The sequence LPHFHPPLDPPA had a protein stability index of 0.692 ± 0.0079. Under LPHPPTPPLPRP stands 0.667 ± 0.078; under LPHSPSLPPAFP, 0.708 ± 0.032; under LPHTRPLPPRVD, 0.704 ± 0.015.

Take LPILRVVNLMGL: the protein stability index amounted to 0.5935 ± 0.0048. Under LPISASLLSFPL stands 0.716 ± 0.048. Sequence LPLASIYQLRSN returned a protein stability index of 0.713 ± 0.039. Under LPLPPASRSAPP stands 0.589 ± 0.028; under LPLPPLLPPPSP, 0.68 ± 0.073. Under LPLPPLRSSRPL stands 0.665 ± 0.036; under LPLPPSFVHLPF, 0.732 ± 0.05; under LPLPSPLLPPRP, 0.712 ± 0.0051.

For LPLRLVPLFSPP, the protein stability index is 0.722 ± 0.025. With LPLYSFSVDFSF the figure was 0.576 ± 0.0059; with LPNRRRLFLFPS, 0.735 ± 0.05. The sequence LPPAFRIPHTWY had a protein stability index of 0.71 ± 0.0071. Turning to LPPGFPYLSQLP, the protein stability index worked out at 0.666 ± 0.052. With LPPHPPREAPPN, the protein stability index was determined as 0.682 ± 0.083. In turn, LPPLPPSPPSPR returned a protein stability index of 0.697 ± 0.029. In turn, LPPPHPPFPPRF showed a protein stability index of 0.715 ± 0.059.

LPPPHPPTPAPP returned a protein stability index of 0.621 ± 0.075. With LPPPLPSTRPVF the figure was 0.6943 ± 0.005; with LPPPPLTLPPPP, 0.694 ± 0.02; with LPPPPPPPPPSP, 0.82377 ± 0.00068. LPPPPPSRSRPV: the protein stability index was 0.712 ± 0.039. With LPPPRPPASPSL the figure was 0.677 ± 0.033. Under LPPPSFPSISLF stands 0.675 ± 0.14; under LPPPSPPPPPSP, 0.68 ± 0.028.
